This series in a line: total protein half-life in vivo (active degradation + dilution); higher = more stable protein.
[1] abbreviates: E. coli NCM3722 delta-clpP delta-lon delta-hslV, growth: N-lim chemostat, doubling time 6 h.
[2] abbreviates: E. coli NCM3722 delta-hslV, growth: N-lim chemostat, doubling time 6 h.
Setting [3] is: E. coli NCM3722 delta-lon, growth: N-lim chemostat, doubling time 6 h.
Where [4] appears, read: E. coli NCM3722 delta-smpB, growth: N-lim chemostat, doubling time 6 h.
Where [5] appears, read: wild type E. coli NCM3722, growth: C-lim chemostat, doubling time 3 h.
The mark [6] stands for this setting: wild type E. coli NCM3722, growth: C-lim chemostat, doubling time 6 h.
[7] abbreviates: wild type E. coli NCM3722, growth: C-lim chemostat, doubling time 12 h.
The mark [8] stands for this setting: wild type E. coli NCM3722, growth: N-lim chemostat, doubling time 6 h.
Setting [9] is: wild type E. coli NCM3722, growth: N-lim chemostat, doubling time 12 h.
[10] abbreviates: wild type E. coli NCM3722, growth: P-lim chemostat, doubling time 6 h.
Setting [11] is: wild type E. coli NCM3722, growth: P-lim chemostat, doubling time 12 h.
[12] abbreviates: E. coli NCM3722 delta-clpP, growth: N-lim chemostat, doubling time 6 h.

± gives the standard deviation of the averaged measurements.

Take “MNRTDELRTARIESLVTPAELALRYPVTPGVATHVTDSRRRIEKILNGEDKRLLVIIGPCSIHDLTAAMEYATRLQSLRNQYQSRLEIVMRTYFEKPRTVVGWKGLISDPDLNGSYRVNHGLELARKLLLQVNELGVPTATEFLDMVTGQFIADLISWGAIGARTTESQIHREMASALSCPVGFKNGTDGNTRIAVDAIRAARASHMFLSPDKNGQMTIYQTSGNPYGHIIMRGGKKPNYHADDIAAACDTLHEFDLPEHLVVDFSHGNCQKQHRRQLEVCEDICQQIRNGSTAIAGIMAESFLREGTQKIVGSQPLTYGQSITDPCLGWEDTERLVEKLASAVDTRF”: the “total protein half-life in vivo” value by setting is: under setting [1], 5.25 ± 0.74 h; under setting [2], 4.47 ± 0.041 h; under setting [3], 4.88 ± 0.15 h; under setting [4], 4.62 ± 0.51 h; under setting [5], 3.089 ± 0.021 h; under setting [6], 6.53 ± 1.7 h. Besides, the “total protein half-life in vivo” value was found to be 10.3 ± 0.59 h under setting [7]; 5.28 ± 0.75 h under setting [8]; 7.35 ± 0.6 h under setting [9]; 6.03 ± 0.34 h under setting [10]; 11.8 ± 0.39 h under setting [11].
Turning to “MRVDAIAKVTGRARYTDDYVMAGMCYAKYVRSPIAHGYAVSINDEQARSLPGVLAIFTWEDVPDIPFATAGHAWTLDENKRDTADRALLTRHVRHHGDAVAIVVARDELTAEKAAQLVSIEWQELPVITTPEAALAEDAAPIHNGGNLLKQSTMSTGNVQQTIDAADYQVQGHYQTPVIQHCHMESVTSLAWMEDDSRITIVSSTQIPHIVRRVVGQALDIPWSCVRVIKPFVGGGFGNKQDVLEEPMAAFLTSKLGGIPVKVSLSREECFLATRTRHAFTIDGQMGVNRDGTLKGYSLDVLSNTGAYASHGHSIASAGGNKVAYLYPRCAYAYSSKTCYTNLPSAGAMRGYGAPQVVFAVESMLDDAATALGIDPVEIRLRNAAREGDANPLTGKRIYSAGLPECLEKGRKIFEWEKRRAECQNQQGNLRRGVGVACFSYTSNTWPVGVEIAGARLLMNQDGTINVQSGATEIGQGADTVFSQMVAETVGVPVSDVRVISTQDTDVTPFDPGAFASRQSYVAAPALRSAALLLKEKIIAHAAVMLHQSAMNLTLIKGHIVLVERPEEPLMSLKDLAMDAFYHPERGGQLSAESSIKTTTNPPAFGCTFVDLTVDIALCKVTINRILNVHDSGHILNPLLAEGQVHGGMGMGIGWALFEEMIIDAKSGVVRNPNLLDYKMPTMPDLPQLESAFVEINEPQSAYGHKSLGEPPIIPVAAAIRNAVKMATGVAINTLPLTPKRLYEEFHLAGLI”, the “total protein half-life in vivo” value runs as follows: under setting [1], 5 h; under setting [5], 1.88 ± 0.088 h; under setting [6], 2.81 ± 0.68 h; under setting [7], 3.56 ± 1.4 h.
As for “MNDIAHNLAQVRDKISAAATRCGRSPEEITLLAVSKTKPASAIAEAIDAGQRQFGENYVQEGVDKIRHFQELGVTGLEWHFIGPLQSNKSRLVAEHFDWCHTIDRLRIATRLNDQRPAELPPLNVLIQINISDENSKSGIQLAELDELAAAVAELPRLRLRGLMAIPAPESEYVRQFEVARQMAVAFAGLKTRYPHIDTLSLGMSDDMEAAIAAGSTMVRIGTAIFGARDYSKK”, the “total protein half-life in vivo” value amounted to 4.54 ± 0.38 h under setting [1]; 5.38 ± 2.8 h under setting [12]; 4.27 ± 0.37 h under setting [2]; 5.68 ± 1.1 h under setting [3]; 4.24 ± 0.45 h under setting [4]; 3.39 ± 0.11 h under setting [5]. Moreover, the “total protein half-life in vivo” value is 5.71 ± 0.17 h under setting [6]; 8.8 ± 1 h under setting [7]; 4.33 ± 0.43 h under setting [8]; 7.53 ± 0.85 h under setting [9]; 5.95 ± 0.28 h under setting [10]; 11.1 ± 0.35 h under setting [11].
Regarding “MAHRPRWTLSQVTELFEKPLLDLLFEAQQVHRQHFDPRQVQVSTLLSIKTGACPEDCKYCPQSSRYKTGLEAERLMEVEQVLESARKAKAAGSTRFCMGAAWKNPHERDMPYLEQMVQGVKAMGLEACMTLGTLSESQAQRLANAGLDYYNHNLDTSPEFYGNIITTRTYQERLDTLEKVRDAGIKVCSGGIVGLGETVKDRAGLLLQLANLPTPPESVPINMLVKVKGTPLADNDDVDAFDFIRTIAVARIMMPTSYVRLSAGREQMNEQTQAMCFMAGANSIFYGCKLLTTPNPEEDKDLQLFRKLGLNPQQTAVLAGDNEQQQRLEQALMTPDTDEYYNAAAL”, the “total protein half-life in vivo” value is 3.43 ± 0.23 h under setting [1]; 2.236 ± 0.018 h under setting [12]; 0.669 h under setting [2]; 0.723 ± 0.084 h under setting [3]; 0.799 ± 0.048 h under setting [4]; 0.8031 ± 0.0044 h under setting [5]. The “total protein half-life in vivo” value is, setting by setting: under setting [6], 1.3 ± 0.08 h; under setting [7], 1.44 ± 0.52 h; under setting [8], 0.897 ± 0.17 h; under setting [9], 1.09 ± 0.08 h; under setting [10], 1.44 ± 0.36 h; under setting [11], 2.68 ± 0.76 h.
For the sequence “MIDKSAFVHPTAIVEEGASIGANAHIGPFCIVGPHVEIGEGTVLKSHVVVNGHTKIGRDNEIYQFASIGEVNQDLKYAGEPTRVEIGDRNRIRESVTIHRGTVQGGGLTKVGSDNLLMINAHIAHDCTVGNRCILANNATLAGHVSVDDFAIIGGMTAVHQFCIIGAHVMVGGCSGVAQDVPPYVIAQGNHATPFGVNIEGLKRRGFSREAITAIRNAYKLIYRSGKTLDEVKPEIAELAETYPEVKAFTDFFARSTRGLIR [P0A722]”, the “total protein half-life in vivo” value came out at 5.73 ± 0.15 h under setting [1]; 5.26 ± 0.2 h under setting [12]; 5.49 ± 0.17 h under setting [2]; 5.48 ± 0.32 h under setting [3]; 5.59 ± 0.7 h under setting [4]; 3.06 ± 0.068 h under setting [5]. The “total protein half-life in vivo” value runs as follows: under setting [6], 5.79 ± 0.17 h; under setting [7], 10.9 ± 0.052 h; under setting [8], 5.52 ± 0.27 h; under setting [9], 10.4 ± 0.94 h; under setting [10], 5.95 ± 0.41 h; under setting [11], 12.5 ± 0.48 h.
In the case of “MSKFLDRFRYFKQKGETFADGHGQLLNTNRDWEDGYRQRWQHDKIVRSTHGVNCTGSCSWKIYVKNGLVTWETQQTDYPRTRPDLPNHEPRGCPRGASYSWYLYSANRLKYPMMRKRLMKMWREAKALHSDPVEAWASIIEDADKAKSFKQARGRGGFVRSSWQEVNELIAASNVYTIKNYGPDRVAGFSPIPAMSMVSYASGARYLSLIGGTCLSFYDWYCDLPPASPQTWGEQTDVPESADWYNSSYIIAWGSNVPQTRTPDAHFFTEVRYKGTKTVAVTPDYAEIAKLCDLWLAPKQGTDAAMALAMGHVMLREFHLDNPSQYFTDYVRRYTDMPMLVMLEERDGYYAAGRMLRAADLVDALGQENNPEWKTVAFNTNGEMVAPNGSIGFRWGEKGKWNLEQRDGKTGEETELQLSLLGSQDEIAEVGFPYFGGDGTEHFNKVELENVLLHKLPVKRLQLADGSTALVTTVYDLTLANYGLERGLNDVNCATSYDDVKAYTPAWAEQITGVSRSQIIRIAREFADNADKTHGRSMIIVGAGLNHWYHLDMNYRGLINMLIFCGCVGQSGGGWAHYVGQEKLRPQTGWQPLAFALDWQRPARHMNSTSYFYNHSSQWRYETVTAEELLSPMADKSRYTGHLIDFNVRAERMGWLPSAPQLGTNPLTIAGEAEKAGMNPVDYTVKSLKEGSIRFAAEQPENGKNHPRNLFIWRSNLLGSSGKGHEFMLKYLLGTEHGIQGKDLGQQGGVKPEEVDWQDNGLEGKLDLVVTLDFRLSSTCLYSDIILPTATWYEKDDMNTSDMHPFIHPLSAAVDPAWEAKSDWEIYKAIAKKFSEVCVGHLGKETDIVTLPIQHDSAAELAQPLDVKDWKKGECDLIPGKTAPHIMVVERDYPATYERFTSIGPLMEKIGNGGKGIAWNTQSEMDLLRKLNYTKAEGPAKGQPMLNTAIDAAEMILTLAPETNGQVAVKAWAALSEFTGRDHTHLALNKEDEKIRFRDIQAQPRKIISSPTWSGLEDEHVSYNAGYTNVHELIPWRTLSGRQQLYQDHQWMRDFGESLLVYRPPIDTRSVKEVIGQKSNGNQEKALNFLTPHQKWGIHSTYSDNLLMLTLGRGGPVVWLSEADAKDLGIADNDWIEVFNSNGALTARAVVSQRVPAGMTMMYHAQERIVNLPGSEITQQRGGIHNSVTRITPKPTHMIGGYAHLAYGFNYYGTVGSNRDEFVVVRKMKNIDWLDGEGNDQVQESVK”, the “total protein half-life in vivo” value stood at 6.33 ± 1.8 h under setting [1]; 5.88 ± 0.73 h under setting [2]; 6.6 ± 0.84 h under setting [3]; 4.97 ± 0.39 h under setting [4]; 2.41 h under setting [5]; 6.81 h under setting [6]. Further, the “total protein half-life in vivo” value under setting [7] was 13.2 h, the “total protein half-life in vivo” value under setting [8] was 6.23 ± 0.94 h, the “total protein half-life in vivo” value under setting [10] turned out to be 5.64 ± 0.29 h and the “total protein half-life in vivo” value under setting [11] was found to be 12.1 ± 1.3 h.
